# Source: the supplement of paper PMC11316812
# ± gives the standard deviation of the averaged measurements.
# Legend:
# [1] = test system: MCF7; assay: percentage of EdU-negative (G0-arrested) nuclei per well, 72 h; higher = more G0 arrest; settings: reference: sequence is the full UniProt precursor, the tested protein was the secreted form or ectodomain
# [2] = test system: hTERT-HMEC; assay: as above; settings: reference: sequence is the full UniProt precursor, the tested protein was the secreted form or ectodomain
# [3] = protein concentration 0.0225 µM
# [4] = protein concentration 0.03125 µM
# [5] = protein concentration 0.3125 µM
# [6] = protein concentration 0.01225 µM
# [7] = protein concentration 0.1225 µM
# [8] = protein concentration 0.01775 µM
# [9] = protein concentration 0.1775 µM
# [10] = protein concentration 0.02372 µM
# [11] = protein concentration 0.2372 µM
# 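Also: secreted proteins added to cultured cells, EdU pulse at the end, nuclei found by Hoechst imaging, EdU status from nuclear versus surrounding ring intensity ratio, PBS as neutral control.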
Sequence,"percentage of EdU-negative [1, 3] [%]",percentage of EdU-negative ([1]; protein concentration 0.225 µM) [%],"percentage of EdU-negative [2, 3] [%]",percentage of EdU-negative ([2]; protein concentration 0.225 µM) [%],further results
MILIPRMLLVLFLLLPILSSAKAQVNPAICRYPLGMSGGQIPDEDITASSQWSESTAAKYGRLDSEEGDGAWCPEIPVEPDDLKEFLQIDLHTLHFITLVGTQGRHAGGHGIEFAPMYKINYSRDGTRWISWRNRHGKQVLDGNSNPYDIFLKDLEPPIVARFVRFIPVTDHSMNVCMRVELYGCVWLDGLVSYNAPAGQQFVLPGGSIIYLNDSVYDGAVGYSMTEGLGQLTDGVSGLDDFTQTHEYHVWPGYDYVGWRNESATNGYIEIMFEFDRIRNFTTMKVHCNNMFAKGVKIFKEVQCYFRSEASEWEPNAISFPLVLDDVNPSARFVTVPLHHRMASAIKCQYHFADTWMMFSEITFQSDAAMYNNSEALPTSPMAPTTYDPMLKVDDSNTRILIGCLVAIIFILLAIIVIILWRQFWQKMLEKASRRMLDDEMTVSLSLPSDSSMFNNNRSSSPSEQGSNSTYDRIFPLRPDYQEPSRLIRKLPEFAPGEEESGCSGVVKPVQPSGPEGVPHYAEADIVNLQGVTGGNTYSVPAVTMDLLSGKDVAVEEFPRKLLTFKEKLGEGQFGEVHLCEVEGMEKFKDKDFALDVSANQPVLVAVKMLRADANKNARNDFLKEIKIMSRLKDPNIIHLLAVCITDDPLCMITEYMENGDLNQFLSRHEPPNSSSSDVRTVSYTNLKFMATQIASGMKYLSSLNFVHRDLATRNCLVGKNYTIKIADFGMSRNLYSGDYYRIQGRAVLPIRWMSWESILLGKFTTASDVWAFGVTLWETFTFCQEQPYSQLSDEQVIENTGEFFRDQGRQTYLPQPAICPDSVYKLMLSCWRRDTKNRPSFQEIHLLLLQQGDE,26.1 ± 1,25.9 ± 1.3,4.96 ± 0.44,5.43 ± 1.3,
MIPAKDMAKVMIVMLAICFLTKSDGKSVKKRSVSEIQLMHNLGKHLNSMERVEWLRKKLQDVHNFVALGAPLAPRDAGSQRPRKKEDNVLVESHEKSLGEADKADVNVLTKAKSQ,,,,,"percentage of EdU-negative [1, 4]: 25.8 ± 0.95%; percentage of EdU-negative [1, 5]: 25 ± 0.47%; percentage of EdU-negative [2, 4]: 4.88 ± 0.23%; percentage of EdU-negative [2, 5]: 6.37 ± 2%"
MIPFLPMFSLLLLLIVNPINANNHYDKILAHSRIRGRDQGPNVCALQQILGTKKKYFSTCKNWYKKSICGQKTTVLYECCPGYMRMEGMKGCPAVLPIDHVYGTLGIVGATTTQRYSDASKLREEIEGKGSFTYFAPSNEAWDNLDSDIRRGLESNVNVELLNALHSHMINKRMLTKDLKNGMIIPSMYNNLGLFINHYPNGVVTVNCARIIHGNQIATNGVVHVIDRVLTQIGTSIQDFIEAEDDLSSFRAAAITSDILEALGRDGHFTLFAPTNEAFEKLPRGVLERIMGDKVASEALMKYHILNTLQCSESIMGGAVFETLEGNTIEIGCDGDSITVNGIKMVNKKDIVTNNGVIHLIDQVLIPDSAKQVIELAGKQQTTFTDLVAQLGLASALRPDGEYTLLAPVNNAFSDDTLSMDQRLLKLILQNHILKVKVGLNELYNGQILETIGGKQLRVFVYRTAVCIENSCMEKGSKQGRNGAIHIFREIIKPAEKSLHEKLKQDKRFSTFLSLLEAADLKELLTQPGDWTLFVPTNDAFKGMTSEEKEILIRDKNALQNIILYHLTPGVFIGKGFEPGVTNILKTTQGSKIFLKEVNDTLLVNELKSKESDIMTTNGVIHVVDKLLYPADTPVGNDQLLEILNKLIKYIQIKFVRGSTFKEIPVTVYTTKIITKVVEPKIKVIEGSLQPIIKTEGPTLTKVKIEGEPEFRLIKEGETITEVIHGEPIIKKYTKIIDGVPVEITEKETREERIITGPEIKYTRISTGGGETEETLKKLLQEEVTKVTKFIEGGDGHLFEDEEIKRLLQGDTPVRKLQANKKVQGSRRRLREGRSQ,,,,,"percentage of EdU-negative [1, 6]: 25.5 ± 0.97%; percentage of EdU-negative [1, 7]: 27.4 ± 1.6%; percentage of EdU-negative [2, 6]: 5.41 ± 1.4%; percentage of EdU-negative [2, 7]: 5 ± 1.3%"
MIPGGLSEAKPATPEIQEIVDKVKPQLEEKTNETYGKLEAVQYKTQVVAGTNYYIKVRAGDNKYMHLKVFKSLPGQNEDLVLTGYQVDKNKDDELTGF,,,,,"percentage of EdU-negative [1, 4]: 26.6 ± 0.69%; percentage of EdU-negative [1, 5]: 23.6 ± 2.5%; percentage of EdU-negative [2, 4]: 5.99 ± 0.58%; percentage of EdU-negative [2, 5]: 5.5 ± 0.67%"
MIPLLLAALLCVPAGALTCYGDSGQPVDWFVVYKLPALRGSGEAAQRGLQYKYLDESSGGWRDGRALINSPEGAVGRSLQPLYRSNTSQLAFLLYNDQPPQPSKAQDSSMRGHTKGVLLLDHDGGFWLVHSVPNFPPPASSAAYSWPHSACTYGQTLLCVSFPFAQFSKMGKQLTYTYPWVYNYQLEGIFAQEFPDLENVVKGHHVSQEPWNSSITLTSQAGAVFQSFAKFSKFGDDLYSGWLAAALGTNLQVQFWHKTVGILPSNCSDIWQVLNVNQIAFPGPAGPSFNSTEDHSKWCVSPKGPWTCVGDMNRNQGEEQRGGGTLCAQLPALWKAFQPLVKNYQPCNGMARKPSRAYKI,24.5 ± 0.64,26.5 ± 3,5.36 ± 0.56,6.55 ± 0.55,
MIRAAPPPLFLLLLLLLLLVSWASRGEAAPDQDEIQRLPGLAKQPSFRQYSGYLKGSGSKHLHYWFVESQKDPENSPVVLWLNGGPGCSSLDGLLTEHGPFLVQPDGVTLEYNPYSWNLIANVLYLESPAGVGFSYSDDKFYATNDTEVAQSNFEALQDFFRLFPEYKNNKLFLTGESYAGIYIPTLAVLVMQDPSMNLQGLAVGNGLSSYEQNDNSLVYFAYYHGLLGNRLWSSLQTHCCSQNKCNFYDNKDLECVTNLQEVARIVGNSGLNIYNLYAPCAGGVPSHFRYEKDTVVVQDLGNIFTRLPLKRMWHQALLRSGDKVRMDPPCTNTTAASTYLNNPYVRKALNIPEQLPQWDMCNFLVNLQYRRLYRSMNSQYLKLLSSQKYQILLYNGDVDMACNFMGDEWFVDSLNQKMEVQRRPWLVKYGDSGEQIAGFVKEFSHIAFLTIKGAGHMVPTDKPLAAFTMFSRFLNKQPY,25.2 ± 3.7,25.1 ± 0.47,5.3 ± 0.043,5.82 ± 0.15,
MIRTLLLSTLVAGALSCGDPTYPPYVTRVVGGEEARPNSWPWQVSLQYSSNGKWYHTCGGSLIANSWVLTAAHCISSSRTYRVGLGRHNLYVAESGSLAVSVSKIVVHKDWNSNQISKGNDIALLKLANPVSLTDKIQLACLPPAGTILPNNYPCYVTGWGRLQTNGAVPDVLQQGRLLVVDYATCSSSAWWGSSVKTSMICAGGDGVISSCNGDSGGPLNCQASDGRWQVHGIVSFGSRLGCNYYHKPSVFTRVSNYIDWINSVIANN,,,,,"percentage of EdU-negative [1, 8]: 23.79 ± 0.23%; percentage of EdU-negative [1, 9]: 29.6 ± 2.2%; percentage of EdU-negative [2, 8]: 6.83 ± 1.7%; percentage of EdU-negative [2, 9]: 24.7 ± 3.9%"
MIRTLLLSTLVAGALSCGVSTYAPDMSRMLGGEEARPNSWPWQVSLQYSSNGQWYHTCGGSLIANSWVLTAAHCISSSGIYRVMLGQHNLYVAESGSLAVSVSKIVVHKDWNSDQVSKGNDIALLKLANPVSLTDKIQLACLPPAGTILPNNYPCYVTGWGRLQTNGALPDDLKQGQLLVVDYATCSSSGWWGSTVKTNMICAGGDGVICTCNGDSGGPLNCQASDGRWEVHGIGSLTSVLGCNYYYKPSIFTRVSNYNDWINSVIANN,22.3 ± 2.4,26.3 ± 0.6,4.64 ± 0.17,5.75 ± 0.53,
MISPFLVLAIGTCLTNSLVPEKEKDPKYWRDQAQETLKYALELQKLNTNVAKNVIMFLGDGMGVSTVTAARILKGQLHHNPGEETRLEMDKFPFVALSKTYNTNAQVPDSAGTATAYLCGVKANEGTVGVSAATERSRCNTTQGNEVTSILRWAKDAGKSVGIVTTTRVNHATPSAAYAHSADRDWYSDNEMPPEALSQGCKDIAYQLMHNIRDIDVIMGGGRKYMYPKNKTDVEYESDEKARGTRLDGLDLVDTWKSFKPRYKHSHFIWNRTELLTLDPHNVDYLLGLFEPGDMQYELNRNNVTDPSLSEMVVVAIQILRKNPKGFFLLVEGGRIDHGHHEGKAKQALHEAVEMDRAIGQAGSLTSSEDTLTVVTADHSHVFTFGGYTPRGNSIFGLAPMLSDTDKKPFTAILYGNGPGYKVVGGERENVSMVDYAHNNYQAQSAVPLRHETHGGEDVAVFSKGPMAHLLHGVHEQNYVPHVMAYAACIGANLGHCAPASSAGSLAAGPLLLALALYPLSVLF,26.1 ± 0.93,24.1 ± 2.4,4.55 ± 0.2,4.93 ± 0.7,
MISPVLILFSSFLCHVAIAGRTCPKPDDLPFSTVVPLKTFYEPGEEITYSCKPGYVSRGGMRKFICPLTGLWPINTLKCTPRVCPFAGILENGAVRYTTFEYPNTISFSCNTGFYLNGADSAKCTEEGKWSPELPVCAPIICPPPSIPTFATLRVYKPSAGNNSLYRDTAVFECLPQHAMFGNDTITCTTHGNWTKLPECREVKCPFPSRPDNGFVNYPAKPTLYYKDKATFGCHDGYSLDGPEEIECTKLGNWSAMPSCKASCKVPVKKATVVYQGERVKIQEKFKNGMLHGDKVSFFCKNKEKKCSYTEDAQCIDGTIEVPKCFKEHSSLAFWKTDASDVKPC,,,,,"percentage of EdU-negative [1, 10]: 28.1 ± 0.39%; percentage of EdU-negative [1, 11]: 24.5 ± 3.1%; percentage of EdU-negative [2, 10]: 5.35 ± 0.089%; percentage of EdU-negative [2, 11]: 5.3 ± 0.56%"
